Data from US6485936.

Molecular target: GAL4-HSF2N96C238 (HSF2 deletion mutant fused with the yeast GAL4-BD derived from pM) (yeast; human) (UniProt P04386)
Assay: cell-based or functional assay

In the case of “VP16-HSF2BP (HSF2BP fused with the VP16 transcriptional activation domain derived from pVP16) (from UniProt O75031 1-334)”, the luciferase reporter activity in two-hybrid assay in K562 cells (induction fold against control VP16) was 11 fold.
